Experimental data published in paper PMC2885556.

Molecular target: wild-type E. coli ClpX (E. coli) (UniProt P0A6H1)
UniProt P0A6H1, sequence (P0A6H1 whole entry): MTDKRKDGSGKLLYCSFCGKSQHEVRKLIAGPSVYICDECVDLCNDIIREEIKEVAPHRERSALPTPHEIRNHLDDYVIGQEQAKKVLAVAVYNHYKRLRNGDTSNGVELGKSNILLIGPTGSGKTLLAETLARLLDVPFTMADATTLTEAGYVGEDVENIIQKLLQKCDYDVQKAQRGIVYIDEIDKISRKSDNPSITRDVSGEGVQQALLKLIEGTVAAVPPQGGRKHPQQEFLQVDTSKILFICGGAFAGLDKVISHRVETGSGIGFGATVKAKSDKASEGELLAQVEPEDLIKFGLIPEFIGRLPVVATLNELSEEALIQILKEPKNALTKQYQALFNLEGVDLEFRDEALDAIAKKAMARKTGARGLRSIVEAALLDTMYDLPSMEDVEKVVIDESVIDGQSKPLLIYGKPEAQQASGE

**Q.** With “wild-type E. coli ClpP with a C-terminal His6 tag (from UniProt P0A6G7 15-207) (enzyme)” as the substance, how does the rate of decapeptide cleavage by ClpP with ClpX•ATPγS, against ClpP alone read?
**A.** 9 fold
